Test results published in IntAct's records for PubMed 18049475.
Blank lines part the entries; values can stand above or below the substance they belong to.

Assays:
gck3_caeel gck-3 [1] = molecular target: gck3_caeel gck-3 (UniProt G5EEN4)
gck3_caeel gck-3 [2] = molecular target: gck3_caeel gck-3 (UniProt G5EEN4); remark: listed apart in the source
gck3_caeel gck-3 [3] = molecular target: gck3_caeel gck-3 (UniProt G5EEN4); remark: listed apart in the source

gck3_caeel gck-3, sequence (G5EEN4 whole entry): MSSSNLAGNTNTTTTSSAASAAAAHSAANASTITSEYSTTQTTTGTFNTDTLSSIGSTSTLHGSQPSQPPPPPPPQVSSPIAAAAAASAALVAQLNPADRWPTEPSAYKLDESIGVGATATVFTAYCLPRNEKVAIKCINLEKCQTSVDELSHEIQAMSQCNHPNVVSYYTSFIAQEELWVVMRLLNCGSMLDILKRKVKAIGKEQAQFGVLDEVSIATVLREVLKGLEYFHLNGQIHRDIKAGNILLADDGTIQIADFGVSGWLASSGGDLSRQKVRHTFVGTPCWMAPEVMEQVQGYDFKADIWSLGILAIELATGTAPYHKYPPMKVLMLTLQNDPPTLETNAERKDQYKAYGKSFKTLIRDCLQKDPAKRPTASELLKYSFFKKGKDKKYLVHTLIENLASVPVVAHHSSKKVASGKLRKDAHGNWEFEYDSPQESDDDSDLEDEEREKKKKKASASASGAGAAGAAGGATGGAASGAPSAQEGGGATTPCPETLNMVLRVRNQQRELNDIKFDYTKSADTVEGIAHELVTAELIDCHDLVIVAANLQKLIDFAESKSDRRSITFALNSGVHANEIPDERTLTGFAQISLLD

effect of a mutation on the interaction (gck3_caeel gck-3 [1]): decreasing interaction
Substance: Serine/threonine-protein kinase WNK (Caenorhabditis elegans), X5M5N0 F1222A

effect of a mutation on the interaction (gck3_caeel gck-3 [2]): decreasing interaction
Substance: Serine/threonine-protein kinase WNK (Caenorhabditis elegans), X5M5N0 F1133A

effect of a mutation on the interaction (gck3_caeel gck-3 [3]): disrupting interaction
Substance: Serine/threonine-protein kinase WNK (Caenorhabditis elegans), X5M5N0 F1133A;F1222A
